Test results as given in patent US20240317847A1 (Bayer, published 2024).
Positions count from the first letter of the chain named. Each block holds one binder with its values, some of them ahead of it.

Assays:
[1] = molecular target: T1, human IL-11 (human, UniProt P20809 22-199); experiment: SPR (Biacore), 37 C, antibody captured via anti-Fc, IL-11 as analyte
T1 construct: Invigate recombinant protein; biotinylated when immobilized in the Di-complex ELISA; also called hIL11; hIL-11
T1 sequence: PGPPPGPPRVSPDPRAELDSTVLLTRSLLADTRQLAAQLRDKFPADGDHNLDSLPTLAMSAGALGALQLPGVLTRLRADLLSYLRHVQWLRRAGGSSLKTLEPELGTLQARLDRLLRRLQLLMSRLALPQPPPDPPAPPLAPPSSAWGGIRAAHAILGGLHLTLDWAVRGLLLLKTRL
Protocol: (§1) To assess the binding kinetics and affinity of anti-IL-11 bispecific antibodies as well as their species cross-reactivity profile, binding assays were conducted using surface plasmon resonance (SPR). […] Antibodies were captured either via anti-human Fc IgGs (“Human antibody capture kit”, Order No. BR100839, Cytiva) or via anti-mouse Fc IgGs (“Mouse antibody capture kit, Order No. BR100383, Cytiva) covalently amine coupled to a Series S CM5 sensor chip (Cytiva) depending on the isotype. The amine coupling was carried out according to the manufacturer's instructions using 1-ethyl-3-(3-dimethylaminopropyl) carbodiimide hydrochloride (EDC), N-hydroxysuccinimide (NHS) and ethanolamine HCl, pH 8.5 (“Amine Coupling Kit” BR-1000-50, Cytiva.). Human, mouse, cynomolgus or rat IL-11 was used as analyte at several dilutions within the concentration range from 0.05-200 nM. For binding assays with only one concentration 200 nM IL-11 was used. The sensor surface was regenerated with glycine pH 1.7 after each antigen injection. Obtained sensorgrams were double referenced (subtraction of reference flow cell signal and buffer injection) and were fitted to a 1:1 Langmuir binding model to derive kinetic data using the Biacore T200 Evaluation software or the Biacore Insight software.
(§2) If no value is reported, there was either no binding or very low binding and multiphasic binding behavior.

[2] = molecular target: T2, murine IL-11 (mouse, UniProt P47873 22-199); experiment: as above
T2 construct: Invigate recombinant protein; biotinylated when immobilized in the Di-complex ELISA; also called mIL11; mIL-11
T2 sequence: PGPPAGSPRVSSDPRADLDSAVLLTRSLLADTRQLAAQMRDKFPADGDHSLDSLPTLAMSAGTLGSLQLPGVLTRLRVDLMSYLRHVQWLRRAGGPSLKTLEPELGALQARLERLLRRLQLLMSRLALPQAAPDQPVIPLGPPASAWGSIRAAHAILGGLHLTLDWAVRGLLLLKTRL
Protocol: as §1, §2

[3] = molecular target: T3, rat IL-11 (rat, UniProt Q99MF5 22-199); experiment: as above
T3 construct: Invigate recombinant protein; also called rIL11
T3 sequence: T2 sequence with S50N, L84F, G94A, V137A, I138V
Protocol: as §1, §2

[4] = molecular target: T4, cynomolgus IL-11 (cynomolgus, UniProt P20808 22-199); experiment: as above
T4 construct: Invigate recombinant protein; also called cIL11; Macaca IL-11
T4 sequence: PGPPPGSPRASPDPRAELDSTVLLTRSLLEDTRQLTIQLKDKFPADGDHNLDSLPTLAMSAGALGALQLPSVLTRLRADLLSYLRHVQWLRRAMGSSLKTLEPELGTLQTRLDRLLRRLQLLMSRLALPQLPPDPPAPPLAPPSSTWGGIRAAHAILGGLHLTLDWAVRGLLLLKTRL
Protocol: as §1, §2

[5] = molecular target: T1, human IL-11; experiment: cell-based or functional assay
[6] = molecular target: T2, murine IL-11; experiment: cell-based or functional assay
[7] = molecular target: T3, rat IL-11; experiment: cell-based or functional assay
[8] = molecular target: T4, cynomolgus IL-11; experiment: cell-based or functional assay
[9] = molecular target: T2, murine IL-11; experiment: Tri-complex ELISA, mIL-11 + mIL-11Ra-Fc + mgp130-Fc, inhibition of complex formation

- Kd [1]: 340 pM
- Kd [2]: 230 pM
- Kd [3]: 330 pM
- Kd [4]: 200 pM
- Efficacy (%), Stat3 reporter gene assay [5]: 81.2%
- Efficacy (%), Stat3 reporter gene assay [6]: 96.9%
- IC50, Stat3 reporter gene assay [6]: 890 pM
- Efficacy (%), Stat3 reporter gene assay [7]: 89.9%
- IC50, Stat3 reporter gene assay [7]: 1800 pM
- Efficacy (%), Stat3 reporter gene assay [8]: 87.8%
- IC50, Stat3 reporter gene assay [8]: 440 pM
- Efficacy (%) [9]: 94.7%
- IC50 [9]: 600 pM
B1: TPP-29528 (antibody, mouse IgG1)
heavy: EVQLLESGGGLVQPGGSLRLSCAASGFTFSSYGMHWVRQAPGKGLEWVAVISYDGSYKYYADSVKGRFTISRDNSKNTLYLQMNSLRAEDTAVYYCAAGVPDYWGQGTLVTVSSAKTTPPSVYPLAPGSAAQTNSMVTLGCLVKGYFPEPVTVTWNSGSLSSGVHTFPAVLQSDLYTLSSSVTVPSSTWPSETVTCNVAHPASSTKVDKKIVPRDCGCKPCICTVPEVSSVFIFPPKPKDVLTITLTPKVTCVVVDISKDDPEVQFSWFVDDVEVHTAQTQPREEQFNSTFRSVSELPIMHQDWLNGKEFKCRVNSAAFPAPIEKTISKTKGRPKAPQVYTIPPPKEQMAKDKVSLTCMITDFFPEDITVEWQWNGQPAENYKNTQPIMDTDGSYFVYSKLNVQKSNWEAGNTFTCSVLHEGLHNHHTEKSLSHSPGK
light: QSVLTQPPSASGTPGQRVTISCSGSSSNIGSDYDVHWYQQLPGTAPKLLIYSNEERPSGVPDRFSGSKSGTSASLAISGLRSEDEADYYCSAWDSSLSGPVFGGGTKLTVLGQPKSSPSVTLFPPSSEELETNKATLVCTITDFYPGVVTVDWKVDGTPVTQGMETTQPSKQSNNKYMASSYLTLTARAWERHSSYSCQVTHEGHTVEKSLSRADCS
notes: mIgG1, Lambda

- Kd [1]: 10 pM
- Kd [2]: 3.5 pM
- Kd [3]: 23 pM
- Kd [4]: 610 pM
- Efficacy (%), Stat3 reporter gene assay [5]: 100%
- IC50, Stat3 reporter gene assay [5]: 1800 pM
- Efficacy (%), Stat3 reporter gene assay [6]: 101%
- IC50, Stat3 reporter gene assay [6]: 1200 pM
- Efficacy (%), Stat3 reporter gene assay [7]: 99.7%
- IC50, Stat3 reporter gene assay [7]: 1000 pM
- Efficacy (%), Stat3 reporter gene assay [8]: 99.2%
- IC50, Stat3 reporter gene assay [8]: 890 pM
- Efficacy (%) [9]: 81.3%
- IC50 [9]: 140 pM
B2: TPP-29519 (antibody, mouse IgG1)
heavy: QVQLVESGGGVVQPGRSLRLSCAASGFTFSHYDMHWVRQAPGKGLEWVAVISYHGSVKFYADSVKGRFTISRDNSKNTLYLQMNSLRAEDTAVYYCARTPGFHFDYWGQGTLVTVSSAKTTPPSVYPLAPGSAAQTNSMVTLGCLVKGYFPEPVTVTWNSGSLSSGVHTFPAVLQSDLYTLSSSVTVPSSTWPSETVTCNVAHPASSTKVDKKIVPRDCGCKPCICTVPEVSSVFIFPPKPKDVLTITLTPKVTCVVVDISKDDPEVQFSWFVDDVEVHTAQTQPREEQFNSTFRSVSELPIMHQDWLNGKEFKCRVNSAAFPAPIEKTISKTKGRPKAPQVYTIPPPKEQMAKDKVSLTCMITDFFPEDITVEWQWNGQPAENYKNTQPIMDTDGSYFVYSKLNVQKSNWEAGNTFTCSVLHEGLHNHHTEKSLSHSPGK
light: QSVLTQPPSASGTPGQRVTISCSGSSSNIGSNYVSWYQQLPGTAPKLLIYYDDLRPSGVPDRFSGSKSGTSASLAISGLRSEDEADYYCSAWDDSLSGVVFGGGTKLTVLGQPKSSPSVTLFPPSSEELETNKATLVCTITDFYPGVVTVDWKVDGTPVTQGMETTQPSKQSNNKYMASSYLTLTARAWERHSSYSCQVTHEGHTVEKSLSRADCS
notes: mIgG1, Lambda
